{
  "source": "the DeepSol protein solubility set",
  "data": [
    {"test": "soluble on expression in E. coli; label from the status in PepcDB or PDB records", "values": [
      {"sequence": "MAHHHHHHMKINLSFNKNKENKNRNKNGDTDIDNDTRNNKSYKENNPMTRNKIETIFSMSDDEETINYENTHNKIIQQKKENQLNDKIKEYIKEHEEPALTTHEKKEDKKERIDEKNNKKKIQYLGYKSNELTKLNNPKTDDSYDYPFEEKEIYDNLDEKERKKKTIEHNDKDGHEYYKKDHKNHKKYTRSHENDNEVNAYNKDCDVRNKTIDKKTYMKKYDKNIQDYEKKKKKSENSDDDVNRSYLCIDDIFKKKENIDGKKKSKYMEALINSAKRRELEKEFLIQKKQKIDTEKEEKVFVTSAYKKKLMDRELIKKDMDLEVEEKKVDKSSNYNLNLFLKNINAPSNYNRYNRR", "soluble on expression in E. coli": "soluble"},
      {"sequence": "MAHHHHHHMKLLKVSPEKNIEFPLVHFQAVTQVVKLENISDRKVAFKIKTTAPNNYLVRPSFGLINVKETIDIQIILQPLSDKDNISNDKFQVQCLNVDDDTTVDKQFWVTVNKNEIQDHKLVVVLNDESFSKGPHSYLPPNNNPLTEINNKGHNLNYGENNLNADDANMAEGTNQRRPHRVCAAV", "soluble on expression in E. coli": "soluble"},
      {"sequence": "MAHHHHHHMKNALEQLDRHPLVNFQMDVSPLYSALKNIMQEQIQQAQLQEKISQRLTNLEAEVRSVGVRQKEFEDSLDALTPDAKLQTQQTLKELSTNIKNLTSDMKKVRYDVGEAMRTAVDAKRGIHDLESELLSIRQQQRDFSDLHQEVMREHLKFTAAVKDIRWKIEEQEKLIQEFSQVKPQNTSEVDESKLHGMLSALCERTDQNFRSVEESSFAVDAELTRLRADMKFVQNEVRMLRSELHRGGNHLRRDVGCRRQSPHGGSQGADKSALRNEEHLNGYESASTQGAL", "soluble on expression in E. coli": "not soluble"},
      {"sequence": "MAHHHHHHMKVDSLLSPRSAFSTENDPCGSVESVANDVASASDVVVAYPQPGKRWSRIIAGPELVGMSLKENQIKDGKALCIYGHCFDDGIIDYITNEVLPEARVLTKVEIAETKFSSAGMKILLRALWTNSPCEQMEELLLHDVHLHFEETLQLKEVIMKNRKCLRRLVLQRCHMDDSAAEPIVQAISHCEQLREVNFLDNNIVHALAIPTEREDIFPPTLQIFDISGNRIEPKHFTGLGNALRRCMANLHEVYLARCCVTESGLKTLLCGGLYNSQVLSVLNVSAGRLLHTAGKVLSSVISECPNLQRVYMQDNLLDVEGAAQIALVIPYAKKLTVLGMGRCHLGGRGARYIAEAVKQSASLRELDLSGNGVTDEDVHRICACNDDASFRLSYLDLSDNPLTEDCRCSLETLLEHQKDNSCIVVVRGTGLAVVSSYMEYHNKPTPG", "soluble on expression in E. coli": "not soluble"},
      {"sequence": "MAHHHHHHMLPILLSTLEKDESATLRERAGMALELLVREAQTQRLLLGGGSSEDAPLSTLAGKQTAPTPHLAAILASLRDESDEVVVAALRVVLACHMAHNAFSVTAALVQGGLIPVLIDLIQSTNTMTQMVACCATRQLFQVKEAHVELLKLGIVATLTKAIIKAEAVALVAEAAEVASLIAEYAQGRRDAVACGTLASLLPHLHNANLTLRVAVYSAAAQITVLEAAKVQAMEVGYPEQLVGELAREDERDVLMHMLRLIYNLAEWPTARVTLRECLPRIAELLQIAEGDEGVMFALSQADRILKKKVFPV", "soluble on expression in E. coli": "not soluble"},
      {"sequence": "MAHHHHHHMLRCSMLRRSMGPGASYVNTVFDTVAKRYDLMNDLLSLGIHRRWKQHFVNDYVRPCPGGKFLDVAGGTGDIAFRIIDGVRLKEEVFGLVPTLRYLTEVVVLDANENMIREGEARAAREGYLDVKWVIGKGEELPFDDMSFDSYTVSFGIRNFSDRPKALREAYRVLKVGGVLNVLEFSKVTCPFLSLPYDVWSYGFIPMAGQILVDRESYQYLVDSIRAFPDQEEFAKMISDAGFGYVRYENLTGGIACIHTAVKTEAVRVKPEKSPLESVATKAKEEKNSVDDEQLNPA", "soluble on expression in E. coli": "not soluble"},
      {"sequence": "MAHHHHHHMLRGLVNADALTSEQEEHIDQLQHEIDEIWNRRGNYQVDPDAWETMPFFMENITEEDIDKNANCAALASIVYEEVPPDEIAENRKEHGNRALNMALNPNQERRENLARAACYSYTEALQAKGKNTKLSSTIYANRSLAQFIVGNYGHALADAQRSIILDPNYRKAYYRAAKCAFALKKYDMGLQMLEKGRRVVDPPMDAAAQAEFLEMETNCLQGKEQQASEEAKQRRAARSQAAKVSNVARAITSSGIKISSRAEVTSEQMGVYGNPKPYFDTDGMLHVPLLFMYDEYQQTDIMHDVACDVCAAELLDELMPFPWDDRGRYQRLADIVVFFKIDDGANDVQYYEVDQSWPLLEVFREETYEMPQLMPVLHVVCKTSELVDRLEIHRVA", "soluble on expression in E. coli": "soluble"},
      {"sequence": "MAHHHHHHMLRIGICHFSRQEPQVIGTSVPSFRHFPYRAQDVLHLYRDFLRLIHQHPPQERADLLFRLHNEFYRRRHLTSPKMITGAIKRGEGILNVQRSMLESKTLRARGVSSREQGAQNVDGLWDQLQMLSGHVLPGLRNFRPSRNVLKGSYTQQATTQAVYSRRRL", "soluble on expression in E. coli": "not soluble"},
      {"sequence": "MAHHHHHHMLRIYDPKETVAFYEKNFGMINIHTYHFDEYNFSLYFLITPPYDEEERKKIPPPNTIESEQYLWNLKTVCLELTHNHNSTEKLSNGNNDNDRGFGHIAFNCQDVTQFCDYLFKEKKVNFHKLPHETKMKSIGFALDPNDYWIEIVKRSSEVKWKDKEGIANFSQTMIRVKNPEKSLYFYLHILGMKLVHIKHASDFSLYFLKSPYVEGNKGGDISTKEKPEGEQNLPPYNFEELKKAYQSDEDYENLKTSWEPVLELTHNHGTENDDQFAYHNGNTEPRGFGHIGFLVDDLANYCQELEKLGIPFKKKIHEGQMNNIAFVYDPDNYLVELIQRGTTFGRN", "soluble on expression in E. coli": "not soluble"},
      {"sequence": "MAHHHHHHMLSGAEELISDLFRRTSTTSNAVEFILSSNSAAYHDVMQRICNSNQPQLVKGILRTAQSLLPTELFQVFGKSVVPVLLLFAPAVLRRVGELLAAPKETPLSTCGEWDAFTSFITGIHCKLLASPECRATNVRSLPPPPVAARHTPSWSKVFHGEENVSEGVPPPQPSTDCEVNVTAIGTDNYGSLLCTIVCGLSHLLACVATPPCVIGGPGLTTLCNEVMRLLSSTPVFCYASKDANLQIACVSLLLSVLNLGKAVQGCVASSFMPTMRRWFDLTLYSANAVCIQLLFPYILHARAHR", "soluble on expression in E. coli": "not soluble"},
      {"sequence": "MAHHHHHHMLSTNISSNLNNTLVNITGRENKGEWLLYPQSNYEFNIDEKLKNKFIIDKEKCKKRINAYNKNGIRNSVLAIILCHRYEYPHLLLLQHIESQKYYLLNGKYKTWEKPKEVLKKKLQKYINKIKDIHFTPAQINKEQEETVEIGDFLGEWWRTQFNSVFLPYLPAHISRPKEYIRLYQVILSPKCIFHLPPGFTLKAIPLFDLNNCGLAISGLSSILSRFKLHCMVQEQDAEN", "soluble on expression in E. coli": "not soluble"},
      {"sequence": "MAHHHHHHMLTTFNIIWKREQAENVNNEKQCKTVSESLGGNAESSESPSSSISEFDQLVNDVEDLLEEQQINETEKLYKISKCPNEKFNKKNKLSITDLSAQLWCEQQLELILTTGKKRETEAMRLGIERHEVLEKADHLIIDVEVNTREESLGYRLLNTIILLEQLYEYKKAREVWVFGVIRGYVLRGIIDELRIEYDHVSRREYLIISDTKTRKEKREPSFAQKKSSAIQVQTYCLLLQHLKSGKADFKKLFEIYECDPTFEFTAIDLIKYKNLENLCKVVNCLFVRLPKIKEEMEIVYEHQGVEFSRNHIPYFYHSTLFTINILLDYWDGKRSSDVVENSDKWKCKFCDFVRNCVRCPLDG", "soluble on expression in E. coli": "not soluble"},
      {"sequence": "MAHHHHHHMMDMRQLDVSAVARSAMSCMEAKHMSANVKLYTLGFLTFLASSKSWQPYRMSHPDKVEEQALYEDSELASSFISTKYPAGWQQNASEVLNTKFPGLLGEVTAHLSLGGKDTISALPRRHDGR", "soluble on expression in E. coli": "not soluble"},
      {"sequence": "MAHHHHHHMMNKNDITIDENNKYIFRASSFYNKDGLLIKSYSWEVREPLGIIILVHGLASHIRFGFLKQNAKIVNNDHAVLIDGDNYYIYEGSWIEKLNKNGYSVYGLDLQGHGESDGYQNLKLHIKDYDDYIYDLIDFIKSVYESIISKKEKKQMYIRDNDIIETVPIYLVGYSMGANIILRALQLLNKSNDNLISKLNIKAFISLAGMISIKNIGSIDSLKYKYLFLPIIKMLSYVCPTYRLRKKHSGFKRFPYINDLMNFDKLRYKKGMTNKLAYEVIKSVYILKKYINDIPQNVPILFIHSRHDSVCAYEEVLSFYNNLYNTNKEIYTLENMDHVVTLEPENEQALNKMLTWIKKCE", "soluble on expression in E. coli": "soluble"},
      {"sequence": "MAHHHHHHMMRSSFVHKAAAAAAGGGMTATSSDHKMASLHKLLTGEVQFRNNALLKTCNIEHNFGATWKSDIEAYAKCLPADERSCLERQVARVMLTRYTTRELAEYCGEGPEHVDAVAREANIAQAKAHAQQYGADKLEAYVKAESKNAGWSEAETKSFLDAVKAAK", "soluble on expression in E. coli": "soluble"}
    ]}
  ]
}
